According to patent publication US20260337278 (published 2026):

B1: SI-95X13 (antibody)
chain 1: not shown
chain 2: QVQLQQSGAEVKKPGSSVKVSCKASGYTFTNYYIYWVRQAPGQGLEWIGGINPTSGGSNFNEKFKTRVTITADESSTTAYMELSSLRSEDTAFYFCTRQGLWFDSDGRGFDFWGQGTTVTVSSGGGGSGGGGSGGGGSDIQMTQSPSSLSASVGDRVTITCRSSQNIVHSNGNTYLDWYQQTPGKAPKLLIYKVSNRFSGVPSRFSGSGSGTDFTFTISSLQPEDIATYYCFQYSHVPWTFGQGTKLQITGGGGSGGGGSGSGSGGGGGSGGGGSGGGGSDILMTQSPSSMSVSLGDTVSITCHSSQDINSNIGWLQQRPGKSFKGLIYHGTNLDDEVPSRFSGSGSGADYSLTISSLESEDFADYYCVQYAQFPWTFGGGTKLEIKRTVAAPSVFIFPPSDEQLKSGTASVVCLLNNFYPREAKVQWKVDNALQSGNSQESVTEQDSKDSTYSLSSTLTLSKADYEKHKVYACEVTHQGLSSPVTKSFNRGEC
B2: SI-95X16 (antibody)
chain 1: not shown
chain 2: DIQMTQSPSSLSASVGDRVTITCRSSQNIVHSNGNTYLDWYQQTPGKAPKLLIYKVSNRFSGVPSRFSGSGSGTDFTFTISSLQPEDIATYYCFQYSHVPWTFGQGTKLQITGGGGSGGGGSGGGGSQVQLQQSGAEVKKPGSSVKVSCKASGYTFTNYYIYWVRQAPGQGLEWIGGINPTSGGSNFNEKFKTRVTITADESSTTAYMELSSLRSEDTAFYFCTRQGLWFDSDGRGFDFWGQGTTVTVSSGGGGSGGGGSGSGSGGGGGSGGGGSGGGGSDILMTQSPSSMSVSLGDTVSITCHSSQDINSNIGWLQQRPGKSFKGLIYHGTNLDDEVPSRFSGSGSGADYSLTISSLESEDFADYYCVQYAQFPWTFGGGTKLEIKRTVAAPSVFIFPPSDEQLKSGTASVVCLLNNFYPREAKVQWKVDNALQSGNSQESVTEQDSKDSTYSLSSTLTLSKADYEKHKVYACEVTHQGLSSPVTKSFNRGEC
B3: SI-95X12 (antibody)
chain 1: not shown
chain 2: QVQLQQSGAEVKKPGSSVKVSCKASGYTFTNYYIYWVRQAPGQGLEWIGGINPTSGGSNFNEKFKTRVTITADESSTTAYMELSSLRSEDTAFYFCTRQGLWFDSDGRGFDFWGQGTTVTVSSGGGGSGGGGSGGGGSDIQMTQSPSSLSASVGDRVTITCRSSQNIVHSNGNTYLDWYQQTPGKAPKLLIYKVSNRFSGVPSRFSGSGSGTDFTFTISSLQPEDIATYYCFQYSHVPWTFGQGTKLQITGGGGSGSGSGGGGGSGGGGSGGGGSDILMTQSPSSMSVSLGDTVSITCHSSQDINSNIGWLQQRPGKSFKGLIYHGTNLDDEVPSRFSGSGSGADYSLTISSLESEDFADYYCVQYAQFPWTFGGGTKLEIKRTVAAPSVFIFPPSDEQLKSGTASVVCLLNNFYPREAKVQWKVDNALQSGNSQESVTEQDSKDSTYSLSSTLTLSKADYEKHKVYACEVTHQGLSSPVTKSFNRGEC
B4: SI-95X15 (antibody)
chain 1: not shown
chain 2: DIQMTQSPSSLSASVGDRVTITCRSSQNIVHSNGNTYLDWYQQTPGKAPKLLIYKVSNRFSGVPSRFSGSGSGTDFTFTISSLQPEDIATYYCFQYSHVPWTFGQGTKLQITGGGGSGGGGSGGGGSQVQLQQSGAEVKKPGSSVKVSCKASGYTFTNYYIYWVRQAPGQGLEWIGGINPTSGGSNFNEKFKTRVTITADESSTTAYMELSSLRSEDTAFYFCTRQGLWFDSDGRGFDFWGQGTTVTVSSGGGGSGSGSGGGGGSGGGGSGGGGSDILMTQSPSSMSVSLGDTVSITCHSSQDINSNIGWLQQRPGKSFKGLIYHGTNLDDEVPSRFSGSGSGADYSLTISSLESEDFADYYCVQYAQFPWTFGGGTKLEIKRTVAAPSVFIFPPSDEQLKSGTASVVCLLNNFYPREAKVQWKVDNALQSGNSQESVTEQDSKDSTYSLSSTLTLSKADYEKHKVYACEVTHQGLSSPVTKSFNRGEC
B5: SI-95X11 (antibody)
chain 1: not shown
chain 2: QVQLQQSGAEVKKPGSSVKVSCKASGYTFTNYYIYWVRQAPGQGLEWIGGINPTSGGSNFNEKFKTRVTITADESSTTAYMELSSLRSEDTAFYFCTRQGLWFDSDGRGFDFWGQGTTVTVSSGGGGSGGGGSGGGGSDIQMTQSPSSLSASVGDRVTITCRSSQNIVHSNGNTYLDWYQQTPGKAPKLLIYKVSNRFSGVPSRFSGSGSGTDFTFTISSLQPEDIATYYCFQYSHVPWTFGQGTKLQITSGSGSGGGGGSGGGGSGGGGSDILMTQSPSSMSVSLGDTVSITCHSSQDINSNIGWLQQRPGKSFKGLIYHGTNLDDEVPSRFSGSGSGADYSLTISSLESEDFADYYCVQYAQFPWTFGGGTKLEIKRTVAAPSVFIFPPSDEQLKSGTASVVCLLNNFYPREAKVQWKVDNALQSGNSQESVTEQDSKDSTYSLSSTLTLSKADYEKHKVYACEVTHQGLSSPVTKSFNRGEC
B6: SI-95X9 (antibody)
chain 1: not shown
chain 2: DILMTQSPSSMSVSLGDTVSITCHSSQDINSNIGWLQQRPGKSFKGLIYHGTNLDDEVPSRFSGSGSGADYSLTISSLESEDFADYYCVQYAQFPWTFGGGTKLEIKRTVAAPSVFIFPPSDEQLKSGTASVVCLLNNFYPREAKVQWKVDNALQSGNSQESVTEQDSKDSTYSLSSTLTLSKADYEKHKVYACEVTHQGLSSPVTKSFNRGEC
B7: SI-95X4 (antibody)
chain 1: not shown
chain 2: B6 chain 2
B8: SI-95X8 (antibody)
chain 1: not shown
chain 2: B6 chain 2
B9: SI-95X10 (antibody)
chain 1: not shown
chain 2: B6 chain 2
B10: SI-95X5 (antibody)
chain 1: not shown
chain 2: B6 chain 2
B11: SI-95X7 (antibody)
chain 1: not shown
chain 2: B6 chain 2
B12: SI-95X6 (antibody)
chain 1: not shown
chain 2: B6 chain 2
B13: SI-95X14 (antibody)
chain 1: not shown
chain 2: DIQMTQSPSSLSASVGDRVTITCRSSQNIVHSNGNTYLDWYQQTPGKAPKLLIYKVSNRFSGVPSRFSGSGSGTDFTFTISSLQPEDIATYYCFQYSHVPWTFGQGTKLQITGGGGSGGGGSGGGGSQVQLQQSGAEVKKPGSSVKVSCKASGYTFTNYYIYWVRQAPGQGLEWIGGINPTSGGSNFNEKFKTRVTITADESSTTAYMELSSLRSEDTAFYFCTRQGLWFDSDGRGFDFWGQGTTVTVSSSGSGSGGGGGSGGGGSGGGGSDILMTQSPSSMSVSLGDTVSITCHSSQDINSNIGWLQQRPGKSFKGLIYHGTNLDDEVPSRFSGSGSGADYSLTISSLESEDFADYYCVQYAQFPWTFGGGTKLEIKRTVAAPSVFIFPPSDEQLKSGTASVVCLLNNFYPREAKVQWKVDNALQSGNSQESVTEQDSKDSTYSLSSTLTLSKADYEKHKVYACEVTHQGLSSPVTKSFNRGEC

Target: EGFRvIII (human, UniProt P00533)
Test: BLI

Row | Kd [nM] | Binder
1 | 8.77 | B1
2 | 19.4 | B2
3 | 7.8 | B3
4 | 0.175 | B4
5 | 4.87 | B5
6 | 6.16 | B6
7 | 5.52 | B7
8 | 6.97 | B8
9 | 7 | B9
10 | 7.94 | B10
11 | 8.41 | B11
12 | 6.35 | B12
13 | 0.428 | B13
